Laboratory results: the supplement of paper PMC9170038

Assays:
[1] = system: MS2 coat protein; assay: apparent KD of MS2 coat protein, switch OFF state (with FMN for OFF switches, without FMN for ON switches); designed switch direction (-1 OFF switch, 1 ON switch): -1; higher = weaker reporter binding; conditions: FMN input: 0 or 200 uM; Eterna round: R93 (includes R88 designs)
Outline: (§1)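 Designed RNA switches were made by on-chip transcription from Illumina sequencing clusters and then titrated with SNAP-549-labelled MS2 coat protein. Twofold steps ran from 0.7 or 1.5 nM to 3 µM, each lasting 0.8–1.5 h early and 10–20 min late, in 100 mM Tris-HCl pH 7.5, 80 mM KCl, 4 mM MgCl2, without or with constant ligand. Apparent KD is the per-design median of normalised cluster binding-curve fits.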

[2] = system: MS2 coat protein; assay: apparent KD of MS2 coat protein, switch ON state; designed switch direction (-1 OFF switch, 1 ON switch): -1; higher = weaker reporter binding; conditions: FMN input: 0 or 200 uM; Eterna round: R93 (includes R88 designs)
Outline: as §1

Sequence	apparent KD of MS2 coat protein [1] [µM]	apparent KD of MS2 coat protein [2] [µM]
AAAAGUUGAGGAUAUACAAAAUGAUUGCGAAAUCAAUUAAAACAUGAGGAUCACCCAUGUAGAAGGCGAUAAAA [Banishment 4 - Jieux - Exclusion 2]	0.0216	0.027
AAAAUACAUGAGGAUCACCCAUGUGAGGAUAUGCUAUGGAAAUAAAAAAUAAAACAUAGCAGAAGGUACAAAAA [Mat - Exclusion 1 - Eli mod - D42]	0.0337	0.0209
AAAAUGUCAGGAUAUCUGGAUAGGAAAAAGAAAACCUAUCCAGAGAAGGGACAUGAGGAUCACCCAUGUAAAAA [JL cataway mod 3]	0.171	0.0929
AAAAUGUCAGGAUAUGUAGCAUGAUACGAAAGUAUCAUGCUACAGAAGGGACAUGAGGAUCACCCAUGUGAUCA [Ex4: 939]	0.045	0.0597
AAACCACAUGAGGAUCACCCAUGUUAGGAUAUGCUAUGGAAAAUAAAAAUAAAACAUAGCAGAAGGGACAAAAA [Denovo 7]	0.0187	0.0193
AAAGAGUGAGGAUAUUCGGAUAGGAAAACGAAAACCUAUCCGAAGAAGGCACAUGAGGAUCACCCAUGUAAAAA [67% Ecls-II - Early G segment 2]	0.0395	0.0373
AAAGAUACAGGAUAUACAUGAGGAUCACCCAUGUGGAAUCAAAAAUGGGAAAAAGAAAGUAGAAGGGUAUAAAA [Ex 3 May 38]	0.0873	0.0306
AAAGAUGCAGGAUAUACAUGAGGAUCACCCAUGUUAGACCAGAAAUGGGAAAAAGAAAGUAGAAGGGCAUAAAA [Ex 3 May 33]	0.119	0.0182
AAAGGACGAGGAUAUACAUGAGGAUCACCCAUGUAAAAAACAUAAUAAAAGAACUUGUGUAGAAGGCGUCCAAA [Meechl Ex3 2 R2 v6]	0.335	0.093
AAAGGACGAGGAUAUACAUGAGGAUCACCCAUGUAAAAAGCGUAAUAAAAGAACUUAUGUAGAAGGCGUCCAAA [Meechl Ex3 2 R2 v1]	0.0668	0.045
AAAGGUGCAGGAUAUGCGUGGAAAAAGUGUAUUCAAAAAAAACAUGAGGAUCACCCAUGUAGAAGGGUACCAAA [MS2 Riboswitches On Chip Exclusion 2 wbt2]	0.165	0.0557
AAAUAACAUGAGGAUCACCCAUGUUAGGAUAUCUAAAUGGUGUAAACACCAGAAGAUGAGAGAAGGGACGUGGA [Enlalees]	0.0251	0.0179
AAAUAGCAAGGAUAUACAUGAGGAUCACCCAUGUGAAAAAGAUAUGGAAUAGAAUAGAGUAGAAGGUGCAAAUA [Ex 3 Tesla 8]	0.0541	0.0404
AAAUAGUUAGGAUAUACAUGAGGAUCACCCAUGUGCACUUAUGGAGAAUAGUGUAAUGGUAGAAGGGACUAAAA [EX2 Malc#23]	0.0946	0.0821
AAAUAGUUAGGAUAUACAUGAGGAUCACCCAUGUGGACUUAUGGAGAAUAAUUUAGUGGUAGAAGGGACUAAAA [EX2 Malc#27]	0.0446	0.0464
AAAUGCUGAGGAUAUACAUGAGGAUCACCCAUGUAAAAUAAAUAAUGAGUGUAAACGUGUAGAAGGCAGCAUAA [Exclusion 3.14c (FMN+ favored )]	0.0195	0.0411
AAAUUGUCAGGAUAUGUACGAACAACAAAACAAAUAACGGUACAGAAGGGACAUGAGGAUCACCCAUGUAUAAA [May 72]	0.0732	0.0658
AACAAGACAGGAUAUACAUGAGGAUCACCCAUGUGAGAAUUAAGUGGCGUACCACAAGGUAGAAGGGUCAUGGA [Ruby 3]	0.0576	0.0342
AACAGACAUGAGGAUCACCCAUGUAAGGAUAUCCCAAACGAUAAAACAAGAAUGACAAGGAGAAGGUGCAGCAA [JR_Exc001_Sub006]	0.0508	0.0628
AACAGGUGAGGAUAUCGAACAACAACAACAACAACAACAAACGAGAAGGCACAUGAGGAUCACCCAUGUAAGAA [Exclusion 4C]	0.0166	0.0196
AACAGUACAGGAUAUACAUGAGGAUCACCCAUGUAAAGGGAAAGUGGCGUACCACAAAGUAGAAGGGUACUGGA [Moding Maslow revisited (73) 5]	0.175	0.0401
AACAGUACAGGAUAUACAUGAGGAUCACCCAUGUAGAGAGAAUAAAACAAAAAUAAAUGUAGAAGGGUACUGAA [Mat - Exclusion 3 - Eli mod - D68]	0.0255	0.0245
AACAGUACAGGAUAUACAUGAGGAUCACCCAUGUGAAAAUUAAGUGGCGAACCACAAUGUAGAAGGGUACUGGA [Mat - Exclusion 3 - Eli mod - D47]	0.0259	0.0819

Sequence	apparent KD of MS2 coat protein [1] [µM]	apparent KD of MS2 coat protein [2] [µM]
AACAGUACAGGAUAUACAUGAGGAUCACCCAUGUGAAAAUUAAGUGGCGUACCACAGUGUAGAAGGGUACUGGA [Moding Maslow Revisited (73) 25]	0.0627	0.0879
AACAGUACAGGAUAUACAUGAGGAUCACCCAUGUGAGAAACCAGUGGCGUACCACAAAGUAGAAGGGUACUGGA [Moding Maslow Revisited (73) 28]	0.185	0.0424
AACAGUACAGGAUAUACAUGAGGAUCACCCAUGUGGGUAAAAAGAUCGAGAGAUCCAUGUAGAAGGGUACUGGA [JL In the Red 05]	0.0379	0.0367
AACAUGUUAGGAUAUUCAAGAAAAGAAAAGAAAGAAAAGAAGAAGAAGGAACAUGAGGAUCACCCAUGUAAGAA [EteRNA is fun!]	0.0271	0.0333
AACCCGCUAGGAUAUACAGCAGGGAUUCGAAAACCCACGAAACAUGAGGAUCACCCAUGUAGAAGGAGUAGGGA [Bereatenat]	0.0211	0.0227
AACGCGUCAGGAUAUAGCAUAAAUUACGUAGUACGACCAUACUAGAAGGGACAUGAGGAUCACCCAUGUGGGUA [JR_Exc004_Sub207]	0.0904	0.167
AACGGGCUAGGAUAUACACAAGCCUCAGAACAAAUAAACAAACAUGAGGAUCACCCAUGUAGAAGGAGCGCAAA [Lesocerean]	0.0429	0.0306
AACUAGUGAGGAUAUACAAGAAAAAAAAAAAAAAUAAAGGGACAUGAGGAUCACCCAUGUAGAAGGCACUAACA [Diamond 69]	0.0649	0.0377
AACUGACAUGAGGAUCACCCAUGUCAGGAUAUGACAUCGAAAAAUAAAUAAAUCGUUGUCAGAAGGGACAUGAA [Design 76: Sub-opt S]	0.0149	0.0163
AACUGACAUGAGGAUCACCCAUGUCAGGAUAUGAUUUGACGAAAAAAAAAAAGUCAUAUCAGAAGGGACAUGGA [Design 81: Sub-opt UB]	0.0415	0.0247
AACUGACAUGAGGAUCACCCAUGUCAGGAUAUGCUUCAUAAAAAAAAAAAAAAAUGAUGCAGAAGGGACAUGGG [Design 32 :P Sub-opt 8]	0.11	0.0416
AACUGACAUGAGGAUCACCCAUGUCAGGAUAUGCUUCAUAAAAAGAAAUAAAAAUGAUGCAGAAGGGAUAUGGG [Design 34 :P Sub-opt 10]	0.0371	0.0246
AAGAAACAUGAGGAUCACCCAUGUGAGGAUAUCCAAGAAAGAAAGAAAGAAAGAAGAAGGAGAAGGCACAAAGG [Quintus Ostorius Scapula]	0.119	0.0505
AAGAAACAUGAGGAUCACCCAUGUGAGGAUAUCGAAAAGAAAAGAAAAGAAAGAAGAACGAGAAGGCACAAAGG [Neferkare (V) Tereru]	0.0762	0.0527
AAGAAACAUGAGGAUCACCCAUGUGAGGAUAUGCAAGAAAGAAAGAAAGAAAGAAGAAGCAGAAGGCACAAAGG [Gaius Turranius]	0.0659	0.0424
AAGAAACGAGGAUAUACAAAAUAAAAGAAAAGAAAGAAAGAACAUGAGGAUCACCCAUGUAGAAGGCGUAAGAA [Wahibre Ibiau]	0.0303	0.0446
AAGAACAGAGGAUAUACAUGAGGAUCACCCAUGUAAAAGAAAGAAAAGGGAAAGAAAAGUAGAAGGCUGAAGAA [Ankhkheperure Smenkhkare]	0.0428	0.0229
AAGAACCGAGGAUAUACAUGAGGAUCACCCAUGUAAAAGAAAGAAAAGGGAAAGAAAAGUAGAAGGCGGAAGAA [Aakheperenre Thutmose II]	0.0555	0.0428
AAGAACGAAGGAUAUACAAAAUAAAAGAAAAGAAAGAAAGAACAUGAGGAUCACCCAUGUAGAAGGUCGAAGAA [Awybre Hor I]	0.0258	0.0105
AAGAACGAAGGAUAUACAUGAGGAUCACCCAUGUAAAAGAAAGAGGGAAAAGAGAAAAGUAGAAGGUCGAAGAA [Ptolemy VIII Euergetes II]	0.0238	0.0204
AAGAACGGAGGAUAUACAUGAAAGAAAGAAAAGAAAAGAAAACAUGAGGAUCACCCAUGUAGAAGGCCGAAGAA [EteRNA is fun!]	0.0533	0.0234
AAGAAGCAAGGAUAUACAUGAGGAUCACCCAUGUAAAAGAAAGAAAAGGGAAAGAAAAGUAGAAGGUGCAAGAA [Menmaatre Seti I]	0.027	0.0216
